According to article PMC4035259, “Structural Studies of an Anti-Inflammatory Lectin from Canavalia boliviana Seeds in Complex with Dimannosides” (PLoS ONE, 2014):

B1: Canavalia boliviana lectin (natural protein, UniProt A0A023GPI8 1-237, looked up)
chain: ADTIVAVELDTYPNTDIGDPSYPHIGIDIKSVRSKKTAKWNMQNGKVGTAHIIYNSVGKRLSAVVSYPNGDSATVSYDVDLDNVLPEWVRVGLSATTGLYKETNTILSWSFTSKLKSNSTHETNALHFMFNQFSKDQKDLILQGDATTGRDGNLELTRVSSNGSPQGSSVGRALFYAPVHIWESSAVVASFDATFTFLIKSSDSHPADGIAFFISNIDSSIPSGSTGRLLGLFPDAN
notes: Lectin from Canavalia boliviana seeds, 237 amino acids (full-length alpha-chain, 25,572 Da); the preparation is a combination of the alpha-chain and its fragments, beta-chain (residues 1-118) and gamma-chain (residues 119-237); also called Cbol; CboL; source: purified from Canavalia boliviana seeds (according to Moura et al., 2009)

Experiments:
[1] = target: Concanavalin A (Canavalia ensiformis); test: SAXS; in solution, 1, 5 and 10 mg/ml, buffers from pH 3 to pH 9 (JBS Solubility Kit); average molecular weight at each pH from I(0), BSA as size standard; dimer-tetramer equilibrium
[2] = target: the molecule itself; test: as above

| Molecule | stoichiometry N [1] | stoichiometry N [2] |
| --- | --- | --- |
| Concanavalin A (natural protein) | 4 |  |
| B1 |  | 4 |
